Results as given in US20240124865.
Numbering of substitutions follows the chain as printed. Names may count otherwise.

Target: T1, FRETS-VWF73 substrate (VWF fragment comprising VWFA2 domain residues 1596 to 1668)
T1 chain: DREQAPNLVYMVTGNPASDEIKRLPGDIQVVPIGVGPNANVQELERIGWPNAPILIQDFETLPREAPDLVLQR

B1: ADAMTS13 P1182K variant (Exemplified P1182K variant) (protein)
chain: AAGGILHLELLVAVGPDVFQAHQEDTERYVLTNLNIGAELLRDPSLGAQFRVHLVKMVILTEPEGAPNITANLTSSLLSVCGWSQTINPEDDTDPGHADLVLYITRFDLELPDGNRQVRGVTQLGGACSPTWSCLITEDTGFDLGVTIAHEIGHSFGLEHDGAPGSGCGPSGHVMASDGAAPRAGLAWSPCSRRQLLSLLSAGRARCVWDPPRPQPGSAGHPPDAQPGLYYSANEQCRVAFGPKAVACTFAREHLDMCQALSCHTDPLDQSSCSRLLVPLLDGTECGVEKWCSKGRCRSLVELTPIAAVHGRWSSWGPRSPCSRSCGGGVVTRRRQCNNPRPAFGGRACVGADLQAEMCNTQACEKTQLEFMSQQCARTDGQPLRSSPGGASFYHWGAAVPHSQGDALCRHMCRAIGESFIMKRGDSFLDGTRCMPSGPREDGTLSLCVSGSCRTFGCDGRMDSQQVWDRCQVCGGDNSTCSPRKGSFTAGRAREYVTFLTVTPNLTSVYIANHRPLFTHLAVRIGGRYVVAGKMSISPNTTYPSLLEDGRVEYRVALTEDRLPRLEEIRIWGPLQEDADIQVYRRYGEEYGNLTRPDITFTYFQPKPRQAWVWAAVRGPCSVSCGAGLRWVNYSCLDQARKELVETVQCQGSQQPPAWPEACVLEPCPPYWAVGDFGPCSASCGGGLRERPVRCVEAQGSLLKTLPPARCRAGAQQPAVALETCNPQPCPARWEVSEPSSCTSAGGAGLALENETCVPGADGLEAPVTEGPGSVDEKLPAPEPCVGMSCPPGWGHLDATSAGEKAPSPWGSIRTGAQAAHVWTPAAGSCSVSCGRGLMELRFLCMDSALRVPVQEELCGLASKPGSRREVCQAVPCPARWQYKLAACSVSCGRGVVRRILYCARAHGEDDGEEILLDTQCQGLPRPEPQEACSLEPCPPRWKVMSLGPCSASCGLGTARRSVACVQLDQGQDVEVDEAACAALVRPEASVPCLIADCTYRWHVGTWMECSVSCGDGIQRRRDTCLGPQAQAPVPADFCQHLPKPVTVRGCWAGPCVGQGTPSLVPHEEAAAPGRTTATPAGASLEWSQARGLLFSPAPQPRRLLPGKQENSVQSSACGRQHLEPTGTIDMRGPGQADCAVAIGRPLGEVVTLRVLESSLNCSAGDMLLLWGRLTWRKMCRKLLDMTFSSKTNTLVVRQRCGRPGGGVLLRYGSQLAPETFYRECDMQLFGPWGEIVSPSLSPATSNAGGCRLFINVAPHARIAIHALATNMGAGTEGANASYILIRDTHSLRTTAFHGQQVLYWESESSQAEMEFSEGFLKAQASLRGQYWTLQSWVPEMQDPQSWKGKEGTSRGPFEQKLISEEDLNMHTGHHHHHH
B1 was tested, and the “proteolytic activity, FRETS-VWF73 assay, fold increase” value was “Induces greater than 10-fold increase in activity”.

B2: ADAMTS13 P1182I variant (Exemplified P1182I variant) (protein)
chain: B1 chain with K1108I
In the case of B2, the “proteolytic activity, FRETS-VWF73 assay, fold increase” value is reported as “Induces greater than 10-fold increase in activity”.

B3: Myc/His6-tagged recombinant wildtype human ADAMTS13 (Exemplified wildtype ADAMTS13) (protein)
chain: B1 chain with K1108P
For B3, the “proteolytic activity, FRETS-VWF73 assay, basal (no VWF-D4CK); reference for all other activities” value was “All activities are presented relative to the basal activity of wtADAMTS13 (100%)”.

B4: Myc/His6-tagged ADAMTS13 A1144V variant (Exemplified A1144V variant) (protein)
chain: B1 chain with A1070V, K1108P
B4 was tested, and the “proteolytic activity, FRETS-VWF73 assay, absence of VWF-D4CK, fold over wildtype ADAMTS13” value was “more than 4-fold higher than wildtype ADAMTS13” and the “proteolytic activity, FRETS-VWF73 assay, in the absence and in the presence of the activating VWF-D4CK fragment” value was “displayed significantly higher proteolytic activity compared to wildtype ADAMTS13 and the R568K/F592Y/R660K/Y661F/Y665F variant”.

B5: Myc/His6-tagged ADAMTS13 A1146V variant (Exemplified A1146V variant) (protein)
chain: B1 chain with A1072V, K1108P
For B5, the “proteolytic activity, FRETS-VWF73 assay, absence of VWF-D4CK, fold over wildtype ADAMTS13” value was “more than 4-fold higher than wildtype ADAMTS13” and the “proteolytic activity, FRETS-VWF73 assay, in the absence and in the presence of the activating VWF-D4CK fragment” value was “displayed significantly higher proteolytic activity compared to wildtype ADAMTS13 and the R568K/F592Y/R660K/Y661F/Y665F variant”.

B6: Myc/His6-tagged ADAMTS13 P1180V variant (Exemplified P1180V variant) (protein)
chain: B1 chain with P1106V, K1108P
With B6 the “proteolytic activity, FRETS-VWF73 assay, absence of VWF-D4CK, fold over wildtype ADAMTS13” value was “more than 4-fold higher than wildtype ADAMTS13” and the “proteolytic activity, FRETS-VWF73 assay, in the absence and in the presence of the activating VWF-D4CK fragment” value was “displayed significantly higher proteolytic activity compared to wildtype ADAMTS13 and the R568K/F592Y/R660K/Y661F/Y665F variant”.

B7: Myc/His6-tagged ADAMTS13 P1182V variant (Exemplified P1182V variant) (protein)
chain: B1 chain with K1108V
With B7 the “proteolytic activity, FRETS-VWF73 assay, absence of VWF-D4CK, fold over wildtype ADAMTS13” value was “more than 4-fold higher than wildtype ADAMTS13” and the “proteolytic activity, FRETS-VWF73 assay, in the absence and in the presence of the activating VWF-D4CK fragment” value was “displayed significantly higher proteolytic activity compared to wildtype ADAMTS13 and the R568K/F592Y/R660K/Y661F/Y665F variant”.
